This note sets out measurements from the domain aggregation screens of Martell et al. (2025).

A short description of the series: soluble fraction after stress (log2 fold change); higher = more stays soluble; pooled small domains, quantitative proteomics. Conditions: stress: pH 4. The procedure, abridged:
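How much of each domain stays soluble after acid stress, expressed as a fold change, is used to gauge aggregation propensity. Pooled custom libraries of small domains underwent pH 4 stress before high-throughput quantitative proteomics. A higher log2 value means more of the domain stayed soluble.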
Regarding “HMHMSLTEKYKELTDLAVSAGVQNLNVREQDGVLYVDGDASGAVKQQLWDTYGKLDPDYTSGDLVLNI”, the “soluble fraction (log2)” value is -0.696.
“HMHNSPSPVATTILRFLQPVRAFVGDTEDMRTFGPFLREDVAMVPASQAKNLIRSGHAVEINP”: the “soluble fraction (log2)” value was -0.173.
With “HMHNSQTIIDNIKRIANEQNISLSKLAVISGLGKNTITSMTAKTNIKIETLTAIAKSLNVSIHDLTGE” the figure was 0.0739.
With “HMHPDHRTATVPDAAAGRRFDAVLAELFPQFSRSKLTTWIKSGEVLLNGEVPRPRDAVVGGETVSLNVVL” the figure was at least 0.43.
Under “HMHPMVEAYLADLDRALSGSDPREHAETMSAVREHLADAIAPDATAEQVRHALDELGPVEAIAAG” stands -0.239; under “HMHPQISVEGVLPLKEAVEFVEREIISHAYSRYRATREVARHLGIDPSTVLRKAAKYGITVEPGKN”, -0.372; under “HMHPRDREENKYLLLRGERIYEESIGEKRLYVEAALHKYEKALSSYDTGLIDEAKEEFKKFLEEIEEA”, -0.438.
For “HMHPVEPDDPDQHILFQHLRGQDQVHIDALIRLSGWTADKVSSTLLFMELQGLVKQLPGMYYALE”, the “soluble fraction (log2)” value is -1.07.
Under “HMHQAADFAGFITFNKDGVEQFSFGKYKNQTVVSVLEKDPGYYSWIQNADFPLYTKKILTAIRLAM” stands -0.0054; under “HMHQALLEQSAEHAQQVKAYELLLTAERALDEENTEAFLSAMKSLKPLAENLDAKGKALYQELLPFVTEA”, -0.425; under “HMHQAVTVTKPARLFTGPDGKGVVRSLDVGMMLYPTGEKQGMMWEVEDELGNKGWVSSTLLELS”, 0.197.
Turning to “HMHSEEAALLHRYIDSLEEPQHTVVVMRDIGGYSFEEIASVVQLKEAHIWMILSRARRKLRELYIKTMDHH”, the “soluble fraction (log2)” value is -0.101.
Take “HMHSFFGDNIKKLRTAKKMSQEQLADIFGITKAGISYWETGRSEPNFATVQKLADFFGVTTSDLLGEA”: the “soluble fraction (log2)” value is 0.187.
Consider “HMHSFGLHVRNLRKKSNLTLSQLSNASGLSLSAISKIENNQISPSFINLIRLAEGLKMHIADLVTVK”, for which the “soluble fraction (log2)” value is -0.254.
On to “HMHSGFHSAILDVDRAVKEGKTLYEALNKYPYIFDETFRSLVRAGEASGELPSILSKLALYLEEQSK”, for which the “soluble fraction (log2)” value is -1.04.
Under “HMHSLLDDIPNVGEKRKRILLTHFQSLEEIKAATVEELERLPQINRKAAESIYTFFHSQPIR” stands 0.139; under “HMHSRLEDIPGIGPRRRAMLLRHFGGLAELKAAGVEEIARVEGINMALAQRLWRALHGVPDPT”, 0.343; under “HMHSVIALTIPADYAGLRLDQALAKLLPNWSRSRLQTWIAENRVILDGQITTIKQKVWGNELIQISPQD”, -0.252.
Consider “HMHTDQVLVMTRAVGQGEIVRNTDVGLTSVAVDRAVTTIPASQLDEIVGRHALVDLSAGQLLGSHSVGA”, for which the “soluble fraction (log2)” value was -0.0551.
As to “HMHTNNALWAIADDMRARKDDGEFDTYREGYKWAANNIVKEGIHITAIKLEKAYHKAKSEGKV”, the “soluble fraction (log2)” value is 0.301.
As to “HMHVSIAENIRRIRTQHDMTQEEFGKVAAVSAMAVSQWENGRAVPRMGAVQRIADYFNISKGEVID”, the “soluble fraction (log2)” value was determined as 0.121.
Regarding “HMHWDIAQADAKQEVMDSSDDKEAIERIQANMFKDPKDHDQEYANKILNDMIDEIKEKGLEAMQHKFAQE”, the “soluble fraction (log2)” value was at least 0.43.
Take “HMHYELTPDAEKQLSALGLTAELVERILEEANDRRPIPGTNRTVYSLHGYSVEFSNTNHKIVSVRKG”: the “soluble fraction (log2)” value turned out to be 0.343.
With “HMIAAPFVVKDIRVDGVQPATGEAIISSLPVKVGQTATDADVSNVVRQLFSLNRFQNVQATREGNTLVIKV”, the “soluble fraction (log2)” value came to 0.0417.
Take “HMIAGHLQIKNDYYYMVLSYTDSDGKRKQPWIPTGLPMKGNKKRAEKMLIETRQTYVPPVSSG”: the “soluble fraction (log2)” value is 0.203.
For the sequence “HMIAIGDDARLDDAARFFRIAEDSYAAGDYRKSKENYIEARKLYAELGDHEKVNLINSKISAIDSIT”, the “soluble fraction (log2)” value is -0.0121.
Under “HMIAVIKPSATAEQKAGLVDWIRGQGIDVHISEGHDYTVLGLIGDTSKIDMDLIASLDIVDSVKRVA” stands -0.168; under “HMIDAHTTLLAKRLESKGFLALTDKSSAEEIYEEFGISKKAFKKALGALYKERLVRIGEDGVVWM”, -0.721.
On to “HMIDDPTAVILRLVSEKQVIRRDDVVKALSVTPQKAYRLLKTMTTGGLLTRSGARRTTVYGLPDARER”, for which the “soluble fraction (log2)” value is 0.22.
As to “HMIDEKVQAADKSIEIGNLSPLKGLVTDDEMHELEKLFEKVMALKDFEVNDVGAGRKYIEAYVSFFKFAEG”, the “soluble fraction (log2)” value is -0.847.
With “HMIDELNVGDIRFYLNRYGKEIQIEIIRIGDDGSVYARTMADNALFRVPEARLKNIGEKVPAEEVQRG” the figure was -0.348.
For “HMIDFTHEDIERLWNAIVHYVPERQKSDMAIDFIKSLEDIGVEHDEIKASAEYDPKLEEAINTVY”, the “soluble fraction (log2)” value was -0.357.
With “HMIDIDNLEKAAILLLSMGTEAAAKVMQKLSRDEVQRLISKMASLSGVSSIEAKWTLQQFFNQYREQSG” the figure was -0.832; with “HMIDLSELINKTGSAYTNLRPSGTAVIGDDRVDVVTEGTFVEKDRPVKVVAVEGQRVVVREVE”, -0.206; with “HMIDMQIDTARFGTLGVDDDKIITFPKGLPGFEDERRFFLMDHSGSSKIKWLHSADNPGLALV”, -0.541.
Consider “HMIDVGSKIRSLRKSKNISISTLAKNSDLSTGLISQIERNMVVPSIVAMWKISKALDINIGYFFE”, for which the “soluble fraction (log2)” value was -0.109.
Under “HMIEDMQQYIKEIRQMVSGRLDMTRNLEDEEIRDTIAELVAEESRKQYMTLTEKREVIEGVFNSMR” stands -0.687.
On to “HMIEEIAVPEILGMQEEEAKAKIEGLGLVFNVTDRVKSNEYEKGEVMYQSVGPDDTTVKSGYPINVTISEG”, for which the “soluble fraction (log2)” value was -0.162.
“HMIEEIPYSQFMSMLEEGKIDKAEIYQDSIIFSTKPDEQGKAGYYSIAYMKDNVLADRLYDAGVEFTPII”: the “soluble fraction (log2)” value was -1.4.
For the sequence “HMIEGEQVRLLRLLERQEGGMLPLGDKSPASDILLLTGMSKKTFKMAVGALYKAQMITMTPTSIKLVK”, the “soluble fraction (log2)” value was found to be 0.386.
As for “HMIEGETPEQTMERVSKDPEIVQILQDPVMQGILAQARENPAALQDHMKNPEVYKKINMLIAAGVIRT”, the “soluble fraction (log2)” value is -0.113.
Turning to “HMIEGSSDWKPNMILDDGGDLTKIIHEEYQDLLDDIRGLSEETTTGVLRLYEMEKENSLAVPAINVND”, the “soluble fraction (log2)” value was -0.578.
On to “HMIEKGSDALEKELRKNNLSINEFLTNKNIDIILDELKLKDIDDLYVNIALGKYTPNQIIKIVNK”, for which the “soluble fraction (log2)” value is -0.61.
Regarding “HMIELEGVISSVLAGTMFKVKLRGNGHEVLAHISGKMRKKFIRLVIGDAVKIEMSPYDMDKARIVYRI”, the “soluble fraction (log2)” value was 0.269.
Turning to “HMIELTTDYKKRVVEALVSARENYSGSDSDFARKWSIDKTVYSRLKKGYQEGLLSVGKYIELGMELNVSSR”, the “soluble fraction (log2)” value was determined as 0.0127.
Consider “HMIENITIELNKKALALDFELNKDLPEGVLETIPTLVSLMVRFDPLTVSYHFLRDYIDALLESNLNVDL”, for which the “soluble fraction (log2)” value was -0.56.
With “HMIENMQEYVRHIRAAVSDRLDLTREVEDDEIREVISQIVAEESRQNYLSLGERQTVIETVFNSMR” the figure was -2.17.
Consider “HMIERLVEFVHTLRHSGVRVSMAEAMDAAEALRHTPITERQIFKTALQSVLVKEHQDIPAFDAAFERFFL”, for which the “soluble fraction (log2)” value is -0.728.
Turning to “HMIESLKGILHKKDPTIAIIDVGGVRLSVNITLSTYEKLEEINSSIELLTYFNVREDAMELYG”, the “soluble fraction (log2)” value is -0.377.
Regarding “HMIETIIGAEGKVLETIDNFNQKGVVALAGKEWTARSADASIIPEGAKVSVVEISGVKLIVTQN”, the “soluble fraction (log2)” value is -0.24.
Take “HMIETLGDATFKRLKAMILDGTLEPGTRLSEKKFADHLGVSRTPVREAIGQLVSEGLAKRSAGSAPVVSS”: the “soluble fraction (log2)” value was 0.069.
Under “HMIFSIIPGQIRLTKMEIADGYLVLYGFTPSKEIYNLHLNPALKSIFTSSETSFIPVSGGLKFMSTNKL” stands -0.442; under “HMIGAKVLVNGQLHRDSYGEGPGQTESNATRLVNYINMKGSHPYHVTTLDGGWRGWVTADSVQV”, at least 0.43; under “HMIGDNNELFQKAQLTPREKEVALLLLQGETNSDIAKILYVGLSTVKKHISSIFEKTKVKSRTEFISKVR”, 0.0668.
Take “HMIGDYALILNIKGGSDWYLGNRVELLFTDGTSKIVTTDKDYNAKKDMVPTQIVTYKVNDNGEYSLKALPT”: the “soluble fraction (log2)” value is -1.2.
Under “HMIGEKLKEIREKTGMNKKEFAQYLGLKYTTYNNYETEAREPASDFLILISTKFDVSIDYLLGLQ” stands -0.389; under “HMIGIEALAGEIDRVRQVLTGGGGLSDVQLFSQLKALNEIKAALGASPDPRAPELVQRVDQLLEAAFRS”, -1.1.
In the case of “HMIGIGSDVPNKLKPAIYSFGLVAVGEKSVIPDGVQIGKNTAVSGVTSKEDYPDGVLESGETLIKA”, the “soluble fraction (log2)” value was 0.22.
As to “HMIGKLTSSKLAAIHKMKTNELLAHFTEKGFLNINDAGKYILTQQGKDVGAEFKTSQYGGYFLWPENIE”, the “soluble fraction (log2)” value is 0.0031.
With “HMIGTPLSEWQKDAPEEITRDQIAELVILKFVTVEQLALASDAQLQRIGMGGVGLRERAKLYLNRK” the figure was -0.316; with “HMIGVNMEKSTVEKFANELNLPIDLLLKQLESAGIKKTSGAEELLEADKSALLNYLQIEHGA”, -0.678; with “HMIGVQEFAMTYALTRRETEITQLIIQGKSNAMIAGELFISETTVKKHVSNIFEKTGVSRREELMVRVQAE”, -1.45.
Under “HMIHANGLTDRQEMILEFIRSYISENNYPPSVREIGKGVGLASSASVHNNMKKLASLGFLNWDTD” stands -0.194; under “HMIHFDHPERSILDTMLYEKKGMTAQSARNRLAAYQFQGEDVFKPVSVLSGGELSRITLAIKNAMADK”, 0.0479; under “HMIHQPNNETTRNLIAGVVKKSLSVWETRVQVDGVDVTTAKDNLAEVHINIRYRLRHNQTPASLGLRLNLG”, -0.15.
On to “HMIHSEDMDDHILGHKLVDQYLNKHIEFDNIKKAWNYHTVAIKKFGRYPHRNKILKRESTIEEIDFLKQP”, for which the “soluble fraction (log2)” value was -0.298.
In the case of “HMIHSEEIQDHIFVKQLGEVFLRNHINYENIMKSWDDHTNVIKRFRRYPHRNKILNRESTIDEISFLKE”, the “soluble fraction (log2)” value was -0.0283.
With “HMIIDTELMTRVMKFGFSQADASDLVAQHSDDLLRTAISRVEARAESKGMTPLETPAGYFRWTLQDLVRNP” the figure was -2.02; with “HMIIIMKKSATNSEVRKVIERAEKEGLTVQVNQLEKQQVLGLVGDTRLIQDVAFLRYEGVENVERI”, 0.206.
